# According to patent publication US20260000597A1 (priority 2018, published 2026):
# Molecular target: AchR (Homo sapiens, UniProt P02708)
# Assay: ELISA of screened peptide phages on AchR versus streptavidin (OD450)
# Type: binding
# Conditions: absorbance at 450 nm
# Experimental: The output phages for the 4th and 5th rounds of biopanning in Example 13-1 were inoculated to E. coli, and plated on the agar plates so as to form 100-200 plaques per plate. The plaques were inoculated on 1 ml of an SB liquid medium containing 50 μg/ml of ampicillin by using a sterile tip, and cultured with shaking at 37° C. for 5 hours, followed by the addition of 30 μl of helper phages, and then cultured at 37° C. and 200 rpm for one day. The culture was centrifuged at 12,000 rpm for 2 minutes to collect supernatant, and 2% BSA was added to the supernatant, and used for phage screening.
# In a 96-well ELISA plate, 5 μg/ml AchR or streptavidin was added at 50 μl per well, and left at 4° C. overnight. The next day, the solution in each well was discarded, followed by the addition of 2% BSA, and then blocked at room temperature for 2 hours. After the solution was all discarded, the wells were washed three times with Tris (20 mM, pH7). In addition, 100 μl of each of the phage solutions obtained from the above-prepared plaques was dispensed into wells and left at 30° C. for 1 hour. After the solution in the wells was all discarded, the wells were washed three times with Tris (20 mM, pH 7), and then the HRP-conjugated anti-M13 antibody diluted 1:2,000 was added at 100 μl per well, followed by culture at 30° C. for 1 hour. After the wells were washed three times with Tris (20 mM, pH7), 100 μl of tetramethylbenzidine was added to each well to induce a color development reaction, and then the reaction was stopped by the addition of 100 μl of 1M H2SO4, and the absorbance at 450 nm (OD450) was measured. The measured absorbance was converted into a ratio of AchR absorbance to streptavidin absorbance (AchR signal/streptavidin signal), and the results are shown in FIGS. 14 to 16.
# [1] = ELISA of selected 14-mer (L3) peptide phages on AchR, Spep-2 positive control
# [2] = ELISA of selected 11-mer (L2) peptide phages on AchR, Spep-2 positive control
# [3] = phage ELISA, 5 μg/ml AchR, 4th and 5th round biopanning phages
# AchR, sequence (P02708 21-457): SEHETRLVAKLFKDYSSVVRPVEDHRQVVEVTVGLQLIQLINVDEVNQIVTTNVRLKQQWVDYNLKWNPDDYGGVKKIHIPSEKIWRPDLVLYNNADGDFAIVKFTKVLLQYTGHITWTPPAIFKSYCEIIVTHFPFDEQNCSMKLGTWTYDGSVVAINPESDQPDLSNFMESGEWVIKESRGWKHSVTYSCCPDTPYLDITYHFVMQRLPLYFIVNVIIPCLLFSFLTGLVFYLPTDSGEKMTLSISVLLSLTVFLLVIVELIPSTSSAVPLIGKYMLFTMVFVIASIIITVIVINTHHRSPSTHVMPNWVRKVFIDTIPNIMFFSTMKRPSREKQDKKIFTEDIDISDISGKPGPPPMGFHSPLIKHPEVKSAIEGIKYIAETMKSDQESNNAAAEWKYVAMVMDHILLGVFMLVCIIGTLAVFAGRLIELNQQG
Substance,OD [1],OD [2],OD [3]
L3-34 (LGWKKRKSLLRRHV; AchR binding peptide) [Peptide L3-34],0.74,–,–
L3-114 (LQNRMRKIYWKTFD; AchR binding peptide) [Peptide L3-114],0.646,–,–
L2-52 (LPSRPKKPVPK; AchR binding peptide) [Peptide L2-52],–,0.624,–
RGRRGTMR [Peptide L1-93],–,–,0.616
L2-74 (CIMRVKRMWWK; AchR binding peptide) [Peptide L2-74],–,0.651,–
L3-70 (DHERERRLWSRFPF; AchR binding peptide) [Peptide L3-70],0.781,–,–
REKRYMAR [Peptide L1-91],–,–,0.826
RTRKCVLK [Peptide L1-89],–,–,0.551
L3-53 (HCLRTKKLINKICS; AchR binding peptide) [Peptide L3-53],0.679,–,–
L3-1 (ALGRTKRLHMRVHV; AchR binding peptide) [Peptide L3-1],0.853,–,–
L3-98 (PNGKVRKRIRRRYF; AchR binding peptide) [Peptide L3-98],0.685,–,–
L3-73 (WTCRMRKYQLRTSE; AchR binding peptide) [Peptide L3-73],0.771,–,–
L3-90 (LWNRYKKLLMRIFW; AchR binding peptide) [Peptide L3-90],0.818,–,–
KTKRMLAK [Peptide L1-47],–,–,0.54
L3-110 (AWAKYKKVQPKHHT; AchR binding peptide) [Peptide L3-110],0.538,–,–
L3-74 (IAIRPRKMTLKIHP; AchR binding peptide) [Peptide L3-74],0.726,–,–
L3-164 (QINRVKKSDAKFCT; AchR binding peptide) [Peptide L3-164],0.746,–,–
L3-162 (ANWRTRRDLAKEHV; AchR binding peptide) [Peptide L3-162],0.781,–,–
L2-1 (EDYKYRRQNYK; AchR binding peptide) [Peptide L2-1],–,0.705,–
L2-126 (AMMKYKKEFPK; AchR binding peptide) [Peptide L2-126],–,0.605,–
L3-26 (VPMKYRRCGNRQSN; AchR binding peptide) [Peptide L3-26],0.802,–,–
RIRRAHDR [Peptide L1-165],–,–,0.644

Substance,OD [1],OD [2],OD [3]
RHKRWEVR [Peptide L1-195],–,–,0.642
RIKRDYCK [Peptide L1-164],–,–,0.616
L3-123 (PGERLKKEDHRASG; AchR binding peptide) [Peptide L3-123],0.654,–,–
RMKKFHTR [Peptide L1-128],–,–,0.301
RGKKAVRK [Peptide L1-20],–,–,0.619
L2-92 (FVGRWKREYAK; AchR binding peptide) [Peptide L2-92],–,0.634,–
KFRKGPYR [Peptide L1-135],–,–,0.479
L3-39 (DDVKQRKKHPRVQT; AchR binding peptide) [Peptide L3-39],0.654,–,–
KWRRAFGR [Peptide L1-87],–,–,0.538
L2-182 (HEQRPKKGQQK; AchR binding peptide) [Peptide L2-182],–,0.681,–
L2-78 (HHNRMKKQYHR; AchR binding peptide) [Peptide L2-78],–,0.718,–
L2-59 (FGVKYRRVICR; AchR binding peptide) [Peptide L2-59],–,0.69,–
"RRRRRRRRRRR [Peptide L2-201, reference compound]",–,–,0.307
RIRRVSQR [Peptide L1-60],–,–,0.484
RPRRGHQK [Peptide L1-24],–,–,0.742
L3-67 (VTWKFRKAEKRWGY; AchR binding peptide) [Peptide L3-67],0.786,–,–
L2-2 (GIWKFRRNQCK; AchR binding peptide) [Peptide L2-2],–,0.749,–
KDKRPECK [Peptide L1-133],–,–,0.504
L2-95 (IMDKRRKPGCR; AchR binding peptide) [Peptide L2-95],–,0.522,–
L2-172 (CTWRGRRPHDK; AchR binding peptide) [Peptide L2-172],–,0.685,–
KTRRSACR [Peptide L1-134],–,–,0.365
RGRKPIWK [Peptide L1-108],–,–,0.535

Substance,OD [1],OD [2],OD [3]
L3-97 (WSAKGRRMGCKSTM; AchR binding peptide) [Peptide L3-97],0.684,–,–
RGKRQLGR [Peptide L1-3],–,–,0.649
L2-135 (FPGKNRKYCSR; AchR binding peptide) [Peptide L2-135],–,0.557,–
L2-24 (SFWRERKNGFR; AchR binding peptide) [Peptide L2-24],–,0.812,–
L3-168 (MGLRARKYEDKTLH; AchR binding peptide) [Peptide L3-168],0.775,–,–
L3-197 (QQIKYKRPTYRMVC; AchR binding peptide) [Peptide L3-197],0.771,–,–
KPKRSAPR [Peptide L1-125],–,–,0.345
RCKRFVGK [Peptide L1-173],–,–,0.63
L3-36 (AFSRIKRGVLKLLS; AchR binding peptide) [Peptide L3-36],0.787,–,–
L2-153 (GHQRGKREGSR; AchR binding peptide) [Peptide L2-153],–,0.688,–
L3-20 (CCFKLKKAYNKGPF; AchR binding peptide) [Peptide L3-20],0.755,–,–
KVRKSLWK [Peptide L1-52],–,–,0.56
L3-92 (NLERTKKHGLKGYM; AchR binding peptide) [Peptide L3-92],0.657,–,–
L3-173 (QLGKQKREATREYV; AchR binding peptide) [Peptide L3-173],0.775,–,–
L2-27 (QGEKYRRTESK; AchR binding peptide) [Peptide L2-27],–,0.747,–
KARRNSLK [Peptide L1-175],–,–,0.621
KPKRDQSR [Peptide L1-113],–,–,0.526
L2-33 (INYRCRKWVDK; AchR binding peptide) [Peptide L2-33],–,0.619,–
L2-139 (SVLRCRKCSMK; AchR binding peptide) [Peptide L2-139],–,0.528,–
L2-32 (LYMRCKKQAPR; AchR binding peptide) [Peptide L2-32],–,0.64,–
L3-24 (FVRKKRKSLLRDTR; AchR binding peptide) [Peptide L3-24],0.846,–,–
L2-149 (LPMKQRKCEFR; AchR binding peptide) [Peptide L2-149],–,0.465,–

Substance,OD [1],OD [2],OD [3]
L3-147 (ADHRAKKTLSKFWT; AchR binding peptide) [Peptide L3-147],0.562,–,–
KEKKLVWK [Peptide L1-174],–,–,0.596
RGKKPWWR [Peptide L1-104],–,–,0.46
L3-111 (TWLRGRRWPDKQPQ; AchR binding peptide) [Peptide L3-111],0.976,–,–
KIRRVTNK [Peptide L1-162],–,–,0.668
L2-62 (NLHKPKRDLPK; AchR binding peptide) [Peptide L2-62],–,0.736,–
L3-189 (ELVKHRRLDFRDPM; AchR binding peptide) [Peptide L3-189],0.786,–,–
L2-67 (KTGRSKRHRWR; AchR binding peptide) [Peptide L2-67],–,0.696,–
KTRKQDHR [Peptide L1-172],–,–,0.631
KVKRLPYR [Peptide L1-146],–,–,0.362
L2-148 (DSNKVRKCSSK; AchR binding peptide) [Peptide L2-148],–,0.604,–
L2-177 (LNSKPRRVEFK; AchR binding peptide) [Peptide L2-177],–,0.768,–
L3-21 (NPMKLRKAETKHNV; AchR binding peptide) [Peptide L3-21],0.843,–,–
RARKDAFK [Peptide L1-11],–,–,0.703
L3-54 (FFLRCRRLLGKVQV; AchR binding peptide) [Peptide L3-54],0.784,–,–
L3-117 (CGHKNKKWHNRMDP; AchR binding peptide) [Peptide L3-117],0.696,–,–
L2-53 (PAWRCKRCQPK; AchR binding peptide) [Peptide L2-53],–,0.614,–
L3-165 (YLVKLRRFWAKIDM; AchR binding peptide) [Peptide L3-165],0.771,–,–
L2-17 (GLNRWRRCHHK; AchR binding peptide) [Peptide L2-17],–,0.72,–
L2-55 (PACRSKRDWQK; AchR binding peptide) [Peptide L2-55],–,0.524,–
L2-72 (APHKWRKQEQR; AchR binding peptide) [Peptide L2-72],–,0.638,–
L2-6 (PELKCKRMIGR; AchR binding peptide) [Peptide L2-6],–,0.78,–
